# Experimental data published in PMC2577619.
# Target: HIV-1 BaL envelope glycoprotein gp120 (head of the virion Env spike) (HIV-1 BaL)
# Assay: cryo-EM structure; cryoelectron tomography of vitrified AT-2-treated HIV-1 BaL virions in PBS; 300 kV, pixel 5.56 A; spike subvolumes (2,070 kept) aligned, classified into eight classes and averaged with missing-wedge compensation, no symmetry imposed; head and leg regions also aligned and classified separately
substance,measurement,value
HIV-1 BaL envelope glycoprotein gp120 (head of the virion Env spike) (natural protein),stoichiometry N,3
